{"source": "patent US20160279250", "about": "“METHODS FOR STRUCTURAL DETERMINATION OF SELENIUM DERIVATIZED NUCLEIC ACID COMPLEXES” (SeNA Research ,Inc., published 2016)", "binders": {"B1": {"name": "Se-DNA/RNA duplex (DNA-Se, double Se) (DNA:RNA)", "DNA": "ATGTCG", "RNA": "UCGACA", "modifications": "6-Se-dG at DNA positions 3 and 6; DNA 3'-phosphate"}}, "target": "RNase H (D132N, inactive mutant) (Bacillus halodurans, UniProt Q9KEI9 Q9KEI9:59-196, D132N)", "assay": "structure; PDB 3TWH, 1.80 A; 5 mM MgCl2, MES pH 6.5, PEG 20000; substrate complex", "settings": "tags: expressed in BL21(DE3) pLysE, 5 bp duplex with one-base overhang at both ends", "experimental": "By using the sitting-drop vapor diffusion method at 25° C., the crystals were readily obtained from a mixture of the crystallization screen [Buffer: 0.1 M MES, pH 6.5; precipitant: 12% (w/v), PEG 20000].\nWe have synthesized Se-modified DNAs to investigate the DNA/RNA/RNase H complex. […] The complex of RNase H/RNA/Se-DNA (5′-UCGACA-3′/5′-AT-^SeG-TC-^SeGp-3′) was crystallized in a buffer containing 0.1 M MES (pH 6.5) and precipitant (12% w/v, PEG 20000). The crystals were also grown using the sitting drop vapor diffusion method. The crystals appeared within a week and reached their maximum size within a month. Two crystals were used to collect the MAD/SAD data sets. […] After the SAD or MAD dataset is collected from a single crystal, the selenium atoms can be located by direct methods and the phase can be determined similarly to the well-established protein strategy (Elkayam et al., Cell, 150:100-110 (2012); Ferre-D'Amare et al., Nature, 395:567-574 (1998); Hendrickson, Science, 254:51-58 (1991); Hendrickson, Trends Biochem. Sci., 25:637-643 (2000); Schirle and MacRae, Science, 336:1037-1040 (2012); Yang et al., Science 249:1398-1405 (1990)).\nThe Se-complex structure was finally determined (3TWH; 1.80 Å resolution; FIG. 1) via the selenium anomalous signal and MAD phasing. […] Moreover, the Se-complex structure has been determined by both MAD phasing and molecular replacement. […]"}
{"binder": "B1", "values": [{"measurement": "binding result", "value": "binds"}]}
